In general, stoichiometry N refers to a count of units in the complex or per binding partner.

These results are taken from article PMC4571291.

The assay addresses actin (UniProt P68135). The assay is described as follows: ITC; Tmod or Lmod construct in the syringe titrated into LatB-actin in the cell (LatB:actin 1.2:1); 20 mM HEPES pH 7.5, 100 mM NaCl, 0.2 mM ATP, 1 mM DTT; temperature and concentrations listed in the figures. (In general: Isothermal titration calorimetry measures the heat released or taken up as one component is titrated into another.)

Chain of Tmod1_(ABS1) (P28289 whole entry, the tested form may be a part): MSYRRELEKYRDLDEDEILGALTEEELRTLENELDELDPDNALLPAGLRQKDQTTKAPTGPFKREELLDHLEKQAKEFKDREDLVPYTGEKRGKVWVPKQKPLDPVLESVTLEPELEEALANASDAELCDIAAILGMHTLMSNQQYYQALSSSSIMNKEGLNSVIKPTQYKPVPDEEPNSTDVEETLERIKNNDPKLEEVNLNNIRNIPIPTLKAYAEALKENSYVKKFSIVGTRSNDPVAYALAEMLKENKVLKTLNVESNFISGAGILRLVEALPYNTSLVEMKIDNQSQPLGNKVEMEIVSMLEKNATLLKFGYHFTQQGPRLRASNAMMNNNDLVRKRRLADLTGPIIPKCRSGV

“Tmod1_(ABS1) (from UniProt P28289-1 1-359) (domain or fragment)”: the stoichiometry N stood at 1.
